Each block holds one substance with its values, some of them ahead of it.
Tests used:
[1] = target: UBE2D2∼Ub (ubiquitin-conjugated UBE2D2 S22R/C85K) (UniProt P62837); assay: ITC
[2] = target: UBE2D2∼Ub (ubiquitin-conjugated UBE2D2 S22R/C85K) (UniProt P62837); assay: SEC
[3] = target: the PHD and PHF7 (KD values in the range of 3–6 µM); assay: MST

PHF7 (mPHF7 28–307), sequence (Q9DAG9 28-307): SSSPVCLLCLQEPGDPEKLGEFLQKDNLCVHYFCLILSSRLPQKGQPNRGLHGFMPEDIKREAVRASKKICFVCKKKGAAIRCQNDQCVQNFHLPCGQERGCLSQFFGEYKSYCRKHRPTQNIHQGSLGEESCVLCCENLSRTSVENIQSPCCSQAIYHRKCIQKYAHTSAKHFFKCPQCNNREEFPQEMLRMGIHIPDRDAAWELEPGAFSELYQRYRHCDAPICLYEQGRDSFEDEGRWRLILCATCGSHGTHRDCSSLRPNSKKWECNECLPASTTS

fold lower affinity than PHF7 [1]: 7 fold
Substance: PHF7 RING–PHD (150–307) C164A (from UniProt Q9DAG9 150-307) (domain or fragment)

Kd [1]: 400 nM | fold stronger affinity than for UBE2D2 alone [1]: 3 fold | stoichiometry N [2]: 1
Substance: PHF7 (mPHF7 28–307) (from UniProt Q9DAG9 28-307) (domain or fragment)

Kd [3]: 3000 to 6000 nM
Substance: H3K4me2(1–44) (from UniProt P84233 2-45) (peptide)
